This note sets out measurements from US12295987B2, “Method of using a GIP/GLP1 co-agonist for diabetes” (Eli Lilly and Company, priority 2018, dated 2025).

Numbered stars: 1 amine (or outer) side, 2 acyl side, 3 side chain; on linkers, the order of the positions; unused ones are H or OH. Square brackets hold non-standard residues; d marks the D form. Side chains are listed from the residue outwards. Ends that are not written are not given here. * marks the point of attachment. C20 diacid = O=C(O)CCCCCCCCCCCCCCCCCCC(=O)*; γGlu = O=C(O)[C@H](CCC(=O)[*:2])N[*:1]; AEEA = NCCOCCOCC(=O)O; Aib = CC(C)(N)C(=O)O

The target in this assay is T1, human gastric inhibitory peptide receptor (hGIPR) (Homo sapiens, UniProt P48546).
T1 construct: expressed in transfected cells; host or cells: HEK293
T1 sequence (P48546 22-466): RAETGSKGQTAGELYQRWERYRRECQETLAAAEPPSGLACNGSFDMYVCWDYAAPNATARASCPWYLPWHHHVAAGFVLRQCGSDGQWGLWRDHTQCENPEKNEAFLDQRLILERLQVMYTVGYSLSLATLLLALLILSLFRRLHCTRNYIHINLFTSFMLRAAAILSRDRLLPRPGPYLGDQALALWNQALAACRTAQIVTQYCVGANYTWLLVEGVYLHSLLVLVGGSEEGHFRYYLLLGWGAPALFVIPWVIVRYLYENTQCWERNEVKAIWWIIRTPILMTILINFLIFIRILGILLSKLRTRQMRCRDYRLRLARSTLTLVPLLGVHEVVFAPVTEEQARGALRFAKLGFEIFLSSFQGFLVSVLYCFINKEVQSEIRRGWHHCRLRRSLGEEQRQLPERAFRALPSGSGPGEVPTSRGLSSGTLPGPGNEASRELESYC
The assay can be described thus: cAMP pharmacological functional assay in presence of 0.1% casein, hGIPR. Type of assay: cell-based. The following applies: ratio of hGIPR to hGLP1R cAMP EC50 ratios.

In the case of “Y-Aib-EGTFTSDYSILLDKIAQ-Aib-AFIEYLIK((2-[2-(2-Amino-ethoxy)-ethoxy]-acetyl)2-(γGlu)-CO—(CH2)18—CO2H)GGPSSGAPPPS-NH2 (Y[Aib]EGTFTSDYSILLDKIAQ[Aib]AFIEYLIK([AEEA-AEEA-γGlu-C20 diacid])GGPSSGAPPPS-NH2; N-terminus assumed; SMILES CC[C@H](C)[C@H](NC(=O)[C@H](CCCCN)NC(=O)[C@H](CC(=O)O)NC(=O)[C@H](CC(C)C)NC(=O)[C@H](CC(C)C)NC(=O)[C@@H](NC(=O)[C@H](CO)NC(=O)[C@H](Cc1ccc(O)cc1)NC(=O)[C@H](CC(=O)O)NC(=O)[C@H](CO)NC(=O)[C@@H](NC(=O)[C@H](Cc1ccccc1)NC(=O)[C@@H](NC(=O)CNC(=O)[C@H](CCC(=O)O)NC(=O)C(C)(C)NC(=O)[C@@H](N)Cc1ccc(O)cc1)[C@@H](C)O)[C@@H](C)O)[C@@H](C)CC)C(=O)N[C@@H](C)C(=O)N[C@@H](CCC(N)=O)C(=O)NC(C)(C)C(=O)N[C@@H](C)C(=O)N[C@@H](Cc1ccccc1)C(=O)N[C@H](C(=O)N[C@@H](CCC(=O)O)C(=O)N[C@@H](Cc1ccc(O)cc1)C(=O)N[C@@H](CC(C)C)C(=O)N[C@H](C(=O)N[C@@H](CCCCNC(=O)COCCOCCNC(=O)COCCOCCNC(=O)CC[C@H](NC(=O)CCCCCCCCCCCCCCCCCCC(=O)O)C(=O)O)C(=O)NCC(=O)NCC(=O)N1CCC[C@H]1C(=O)N[C@@H](CO)C(=O)N[C@@H](CO)C(=O)NCC(=O)N[C@@H](C)C(=O)N1CCC[C@H]1C(=O)N1CCC[C@H]1C(=O)N1CCC[C@H]1C(=O)N[C@@H](CO)C(N)=O)[C@@H](C)CC)[C@@H](C)CC) [Peptide 37]”, the “[hGIPR/hGLP1R] EC50 Ratio” value amounted to 9.98.

Consider “Y-Aib-EGTFTSDYSILLDKIAQ-Aib-AFIK((2-[2-(2-Amino-ethoxy)-ethoxy]-acetyl)2-(γGlu)-CO—(CH2)18—CO2H)YLIEGGPSSGAPPPS-NH2 (Y[Aib]EGTFTSDYSILLDKIAQ[Aib]AFIK([AEEA-AEEA-γGlu-C20 diacid])YLIEGGPSSGAPPPS-NH2; N-terminus assumed; SMILES CC[C@H](C)[C@H](NC(=O)[C@H](CCCCN)NC(=O)[C@H](CC(=O)O)NC(=O)[C@H](CC(C)C)NC(=O)[C@H](CC(C)C)NC(=O)[C@@H](NC(=O)[C@H](CO)NC(=O)[C@H](Cc1ccc(O)cc1)NC(=O)[C@H](CC(=O)O)NC(=O)[C@H](CO)NC(=O)[C@@H](NC(=O)[C@H](Cc1ccccc1)NC(=O)[C@@H](NC(=O)CNC(=O)[C@H](CCC(=O)O)NC(=O)C(C)(C)NC(=O)[C@@H](N)Cc1ccc(O)cc1)[C@@H](C)O)[C@@H](C)O)[C@@H](C)CC)C(=O)N[C@@H](C)C(=O)N[C@@H](CCC(N)=O)C(=O)NC(C)(C)C(=O)N[C@@H](C)C(=O)N[C@@H](Cc1ccccc1)C(=O)N[C@H](C(=O)N[C@@H](CCCCNC(=O)COCCOCCNC(=O)COCCOCCNC(=O)CC[C@H](NC(=O)CCCCCCCCCCCCCCCCCCC(=O)O)C(=O)O)C(=O)N[C@@H](Cc1ccc(O)cc1)C(=O)N[C@@H](CC(C)C)C(=O)N[C@H](C(=O)N[C@@H](CCC(=O)O)C(=O)NCC(=O)NCC(=O)N1CCC[C@H]1C(=O)N[C@@H](CO)C(=O)N[C@@H](CO)C(=O)NCC(=O)N[C@@H](C)C(=O)N1CCC[C@H]1C(=O)N1CCC[C@H]1C(=O)N1CCC[C@H]1C(=O)N[C@@H](CO)C(N)=O)[C@@H](C)CC)[C@@H](C)CC) [Peptide 34]”, for which the “[hGIPR/hGLP1R] EC50 Ratio” value was determined as 10.03.

Consider “Y-Aib-EGTFTSDYSILLDKIAQ-Aib-AFK((2-[2-(2-Amino-ethoxy)-ethoxy]-acetyl)2-(γGlu)-CO—(CH2)18—CO2H)EYLIEGGPSSGAPPPS-NH2 (Y[Aib]EGTFTSDYSILLDKIAQ[Aib]AFK([AEEA-AEEA-γGlu-C20 diacid])EYLIEGGPSSGAPPPS-NH2) [Peptide 33]”, for which the “[hGIPR/hGLP1R] EC50 Ratio” value amounted to 8.67.

Regarding “Y-Aib-EGTFTSDYSILLDKIAQ-Aib-K((2-[2-(2-Amino-ethoxy)-ethoxy]-acetyl)2-(γGlu)-CO—(CH2)18—CO2H)FIEYLIEGGPSSGAPPPS-NH2 (Y[Aib]EGTFTSDYSILLDKIAQ[Aib]K([AEEA-AEEA-γGlu-C20 diacid])FIEYLIEGGPSSGAPPPS-NH2; N-terminus assumed; SMILES CC[C@H](C)[C@H](NC(=O)[C@H](CCCCN)NC(=O)[C@H](CC(=O)O)NC(=O)[C@H](CC(C)C)NC(=O)[C@H](CC(C)C)NC(=O)[C@@H](NC(=O)[C@H](CO)NC(=O)[C@H](Cc1ccc(O)cc1)NC(=O)[C@H](CC(=O)O)NC(=O)[C@H](CO)NC(=O)[C@@H](NC(=O)[C@H](Cc1ccccc1)NC(=O)[C@@H](NC(=O)CNC(=O)[C@H](CCC(=O)O)NC(=O)C(C)(C)NC(=O)[C@@H](N)Cc1ccc(O)cc1)[C@@H](C)O)[C@@H](C)O)[C@@H](C)CC)C(=O)N[C@@H](C)C(=O)N[C@@H](CCC(N)=O)C(=O)NC(C)(C)C(=O)N[C@@H](CCCCNC(=O)COCCOCCNC(=O)COCCOCCNC(=O)CC[C@H](NC(=O)CCCCCCCCCCCCCCCCCCC(=O)O)C(=O)O)C(=O)N[C@@H](Cc1ccccc1)C(=O)N[C@H](C(=O)N[C@@H](CCC(=O)O)C(=O)N[C@@H](Cc1ccc(O)cc1)C(=O)N[C@@H](CC(C)C)C(=O)N[C@H](C(=O)N[C@@H](CCC(=O)O)C(=O)NCC(=O)NCC(=O)N1CCC[C@H]1C(=O)N[C@@H](CO)C(=O)N[C@@H](CO)C(=O)NCC(=O)N[C@@H](C)C(=O)N1CCC[C@H]1C(=O)N1CCC[C@H]1C(=O)N1CCC[C@H]1C(=O)N[C@@H](CO)C(N)=O)[C@@H](C)CC)[C@@H](C)CC) [Peptide 32]”, the “[hGIPR/hGLP1R] EC50 Ratio” value came out at 6.18.

Take “Y-Aib-EGTFTSDYSILLDKK((2-[2-(2-Amino-ethoxy)-ethoxy]-acetyl)2-(γGlu)-CO—(CH2)18—CO2H)AQ-Aib-AFI-(D-Glu)-YLIEGGPSSGAPPPS-NH2 (YXEGTFTSDYSILLDKKAQXAFIXYLIEGGPSSGAPPPS; Aib, D-Glu, lipidated Lys, C-terminal amide; (2)..(2) Xaa at position 2 is Aib; MOD_RES (17)..(17) Lys at position 17 is chemically modified by conjugation of the epsilon-amino group of the Lys side chain with (2-[2-(2-amino-ethoxy)-ethoxy]-acetyl)2-(gamma-Glu)-CO-(CH2)18- CO2H; (20)..(20) Xaa at position 20 is Aib; (24)..(24) Xaa at position 24 is D-Glu; MOD_RES (39)..(39) Ser at position 39 is amidated) [Peptide 84]”: the “[hGIPR/hGLP1R] EC50 Ratio” value is 9.19.

Consider “Y-Aib-EGTFTSDYSILLDKK((2-[2-(2-Amino-ethoxy)-ethoxy]-acetyl)2-(γGlu)-CO—(CH2)18—CO2H)AQ-Aib-AFIEYLI-(D-Glu)-GGPSSGAPPPS-NH2 (YXEGTFTSDYSILLDKKAQXAFIEYLIXGGPSSGAPPPS; Aib, D-Glu; K lipidated C20 diacid-γGlu-AEEA2; C-terminal amide; (2)..(2) Xaa at position 2 is Aib; MOD_RES (17)..(17) Lys at position 17 is chemically modified by conjugation of the epsilon-amino group of the Lys side chain with (2-[2-(2-amino-ethoxy)-ethoxy]-acetyl)2-(gamma-Glu)-CO-(CH2)18- CO2H; (20)..(20) Xaa at position 20 is Aib; (28)..(28) Xaa at position 28 is D-Glu; MOD_RES (39)..(39) Ser at position 39 is amidated) [Peptide 83]”, for which the “[hGIPR/hGLP1R] EC50 Ratio” value stood at 4.84.
